Where “and” joins values, the source holds several entries; their conditions need not be identical. Identical values can stand only once.
Key:
[1] = biological target: the molecule itself; test: negative-stain electron microscopy
[2] = biological target: the molecule itself; test: cross-linking

B1: Schmallenberg virus (SBV) nucleocapsid (N) protein (natural protein)
chain: MSSQFIFEDVPQRNAATFNPEVGYVAFIGKYGQQLNFGVARVFFLNQKKAKMVLHKTAQPSVDLTFGGVKFTVVNNHFPQYVSNPVPDNAITLHRMSGYLARWIADTCKASVLKLAEASAQIVMPLAEVKGCTWADGYTMYLGFAPGAEMFLDAFDFYPLVIEMHRVLKDNMDVNFMKKVLRQRYGTMTAEEWMTQKITEIKAAFNSVGQLAWAKSGFSPAARTFLQQFGINI
Q: Which results are given for B1?
A: stoichiometry N [1]: 4 and 5; stoichiometry N [2]: 3
